Results taken from PMC5700378.

Target: PrP^Sc enriched from elk brain infected with chronic wasting disease (elk) (UniProt P67986)
Assay: SPR

UniProt P67986, sequence (P67986 25-233 limits assumed): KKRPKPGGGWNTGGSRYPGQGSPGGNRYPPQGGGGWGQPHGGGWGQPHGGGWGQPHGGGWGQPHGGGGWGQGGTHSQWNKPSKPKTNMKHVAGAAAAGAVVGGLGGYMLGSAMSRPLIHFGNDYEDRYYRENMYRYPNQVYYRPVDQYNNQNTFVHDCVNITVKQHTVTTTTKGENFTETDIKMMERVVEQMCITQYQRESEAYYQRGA

“purified full-length CD21 (from UniProt P20023 21-1033) (receptor)” gave a Kd of 16 nM.
